Results on one substance are retold here after patent publication JP2008515970A.

This test has as its target ヒトVEGF (human) (UniProt P15692). Briefly: cell-based or functional assay.
UniProt P15692, sequence (P15692 other isoform, or with tags, fused parts or gaps limits assumed): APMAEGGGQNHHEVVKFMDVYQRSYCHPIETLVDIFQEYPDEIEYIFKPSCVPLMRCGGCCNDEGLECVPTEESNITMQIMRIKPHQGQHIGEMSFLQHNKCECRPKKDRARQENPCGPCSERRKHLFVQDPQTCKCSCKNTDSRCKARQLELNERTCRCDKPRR

Regarding VEGFR1−Fc−IL−1ra (Fc fusion), the EC50 (inhibition of VEGF-dependent HUVE cell proliferation, VEGF 10 ng/ml) is 15 ng/mL.
